The values below come from US8318172B2, “Breaking immunological tolerance with a genetically encoded unnatural amino acid” (The Scripps Research Institute, priority 2008, dated 2012).

Experiment [1] concerns the target T1, WT mRBP4 (Mus musculus, UniProt Q00724).
T1 construct: The cDNA encoding murine RBP4 (aa 19-201); made in house; host or cells: E. coli BL21(DE3)
The experiment can be described thus: Immunization of mice with mRBP4 variants (RIMMS), serum IgG titers by ELISA. The following applies: Bcl2 mice (FIG. 19), C57BL/6 mice (FIG. 26), RIMMS protocol. It is filed as in vivo. On the procedure: 30 μl of 0.5 μg/ml protein was used to coat the wells of Maxisorp 384-well plates (Nunc, Rochester, N.Y.) overnight at 4° C. After washing with PBS+0.05% Tween 20 (PBST), the coated plates were blocked with 80 μl of 1% BSA in PBS, and washed again with PBST. The plates were sequentially incubated with 20 μl of primary antibody or serum diluted in 1% BSA in PBS, 20 μl of HRP-conjugated goat anti-mouse IgG or anti-mouse IgM (Jackson ImmunoResearch Laboratories, West Grove, Pa.), and 20 μl of TMB substrate (KPL, Gaithersburg, Md.), and read at an absorbance of 650 nm. Between incubations, the plates were washed at least six times with PBST.
Before measurement, serum samples were diluted 1:1,000 with 1% BSA in PBS buffer.

Experiment [2] is described as follows: TR-FRET retinol binding assay of mRBP4 proteins. The following applies: retinol binding affinities of mRBP4 proteins. On the procedure:
The binding affinities of mRBP4 proteins were determined by a TR-FRET retinol binding assay.
WT and pNO2Phe mRBP4 mutant proteins were labeled with biotin using the Sulfo-NHS-Biotin kit (Pierce, Rockford, Ill.) according to manufacturer instructions. For determination of retinol binding activity, 10 nM biotin-labeled RBP4 was mixed with 1 nM Streptavidin-Europium chelate (LANCE® Eu-W8044 Streptavidin, Perkin Elmer, Foster City, Calif.). Increasing concentrations of Cy5-labeled retinol were added to the reaction and retinol binding was assessed by homogeneous time-resolved fluorescence resonance energy transfer (TR-FRET).

For the substance “WT mRBP4: wild-type murine retinol binding protein 4, N-terminal His6-tagged, expressed in E. coli”, in experiment [1], the “serum IgG titers against WT mRBP4” value is “insignificant serum IgG titers”. The dissociation constant (Kd) in experiment [2] turned out to be 0.171 µM.
